According to article PMC2635894 (Biochemistry, 2008):
coumarin = not defined here

T1: HDAC8 (histone deacetylase 8) (Homo sapiens, UniProt Q9BY41, D101E)
T1 sequence (Q9BY41 1-377 D101E): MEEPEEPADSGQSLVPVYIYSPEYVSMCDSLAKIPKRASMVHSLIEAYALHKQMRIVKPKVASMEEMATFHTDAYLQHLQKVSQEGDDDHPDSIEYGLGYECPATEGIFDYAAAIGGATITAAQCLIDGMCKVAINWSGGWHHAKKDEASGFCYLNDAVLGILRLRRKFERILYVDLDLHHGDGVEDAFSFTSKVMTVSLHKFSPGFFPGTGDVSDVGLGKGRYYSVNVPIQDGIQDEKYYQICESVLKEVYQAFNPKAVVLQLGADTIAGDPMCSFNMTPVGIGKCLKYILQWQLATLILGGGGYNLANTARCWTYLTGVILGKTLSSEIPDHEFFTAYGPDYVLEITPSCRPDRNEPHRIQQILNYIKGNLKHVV

T2: HDAC8 (histone deacetylase 8) (Homo sapiens, UniProt Q9BY41, D101A)
T2 sequence (Q9BY41 1-377 D101A): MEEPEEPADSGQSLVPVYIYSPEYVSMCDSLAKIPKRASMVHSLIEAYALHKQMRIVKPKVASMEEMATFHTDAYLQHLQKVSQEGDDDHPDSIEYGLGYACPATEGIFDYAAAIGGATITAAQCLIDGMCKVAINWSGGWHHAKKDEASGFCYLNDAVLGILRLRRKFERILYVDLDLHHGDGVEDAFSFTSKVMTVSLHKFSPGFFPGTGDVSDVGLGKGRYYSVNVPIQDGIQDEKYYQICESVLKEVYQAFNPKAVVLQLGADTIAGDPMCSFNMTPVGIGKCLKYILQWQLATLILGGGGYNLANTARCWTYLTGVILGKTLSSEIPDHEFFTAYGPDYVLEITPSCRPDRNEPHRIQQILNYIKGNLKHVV

T3: HDAC8 (histone deacetylase 8) (Homo sapiens, UniProt Q9BY41, D101N)
T3 sequence (Q9BY41 1-377 D101N): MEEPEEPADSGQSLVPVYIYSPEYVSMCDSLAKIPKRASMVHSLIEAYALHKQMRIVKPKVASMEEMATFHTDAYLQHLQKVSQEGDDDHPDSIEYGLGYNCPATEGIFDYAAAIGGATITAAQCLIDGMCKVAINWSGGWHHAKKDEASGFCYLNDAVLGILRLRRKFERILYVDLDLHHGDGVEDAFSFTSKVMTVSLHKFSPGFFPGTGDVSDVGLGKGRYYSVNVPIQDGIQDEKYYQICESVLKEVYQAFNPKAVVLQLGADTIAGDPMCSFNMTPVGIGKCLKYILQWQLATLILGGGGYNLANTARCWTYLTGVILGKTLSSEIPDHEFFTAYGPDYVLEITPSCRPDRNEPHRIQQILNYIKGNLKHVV

T4: D101A HDAC8 (human histone deacetylase 8, D101A variant) (human, UniProt Q9BY41 1-377, D101A)
T4 sequence: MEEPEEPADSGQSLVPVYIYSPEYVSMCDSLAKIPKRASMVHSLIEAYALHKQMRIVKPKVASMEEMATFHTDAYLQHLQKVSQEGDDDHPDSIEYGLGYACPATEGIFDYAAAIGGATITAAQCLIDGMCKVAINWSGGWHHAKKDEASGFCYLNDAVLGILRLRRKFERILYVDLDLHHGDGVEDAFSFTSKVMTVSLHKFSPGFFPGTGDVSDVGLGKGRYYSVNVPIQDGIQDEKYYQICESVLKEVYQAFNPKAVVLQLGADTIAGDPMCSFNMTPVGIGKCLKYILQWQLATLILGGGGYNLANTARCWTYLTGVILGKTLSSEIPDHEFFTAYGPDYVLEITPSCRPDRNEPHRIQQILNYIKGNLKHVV

T5: D101L HDAC8 (human histone deacetylase 8, D101L variant) (human, UniProt Q9BY41 1-377, D101L)
T5 sequence: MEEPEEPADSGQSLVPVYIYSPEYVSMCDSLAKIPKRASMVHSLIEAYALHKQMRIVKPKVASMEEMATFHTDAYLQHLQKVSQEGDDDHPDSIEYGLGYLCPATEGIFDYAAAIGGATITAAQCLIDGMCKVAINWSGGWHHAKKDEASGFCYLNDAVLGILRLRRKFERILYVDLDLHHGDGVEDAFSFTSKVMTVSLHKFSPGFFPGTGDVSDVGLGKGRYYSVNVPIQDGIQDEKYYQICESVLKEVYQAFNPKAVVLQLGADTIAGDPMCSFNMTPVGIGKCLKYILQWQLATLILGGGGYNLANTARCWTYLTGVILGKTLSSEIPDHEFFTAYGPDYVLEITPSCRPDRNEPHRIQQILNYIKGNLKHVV

T6: D101N HDAC8 (human histone deacetylase 8, D101N variant) (human, UniProt Q9BY41 1-377, D101N)
T6 sequence: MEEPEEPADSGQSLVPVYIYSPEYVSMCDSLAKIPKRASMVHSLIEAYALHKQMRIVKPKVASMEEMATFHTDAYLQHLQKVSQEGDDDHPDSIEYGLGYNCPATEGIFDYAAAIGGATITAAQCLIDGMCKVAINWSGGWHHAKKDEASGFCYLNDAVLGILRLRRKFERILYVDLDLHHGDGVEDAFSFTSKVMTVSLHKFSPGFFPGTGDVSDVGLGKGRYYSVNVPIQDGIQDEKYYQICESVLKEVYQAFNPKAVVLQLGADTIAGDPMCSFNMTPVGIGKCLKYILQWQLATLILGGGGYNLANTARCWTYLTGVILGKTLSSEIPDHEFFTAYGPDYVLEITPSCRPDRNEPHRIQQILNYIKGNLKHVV

T7: D101E HDAC8 (human histone deacetylase 8, D101E variant) (human, UniProt Q9BY41 1-377, D101E)
T7 sequence: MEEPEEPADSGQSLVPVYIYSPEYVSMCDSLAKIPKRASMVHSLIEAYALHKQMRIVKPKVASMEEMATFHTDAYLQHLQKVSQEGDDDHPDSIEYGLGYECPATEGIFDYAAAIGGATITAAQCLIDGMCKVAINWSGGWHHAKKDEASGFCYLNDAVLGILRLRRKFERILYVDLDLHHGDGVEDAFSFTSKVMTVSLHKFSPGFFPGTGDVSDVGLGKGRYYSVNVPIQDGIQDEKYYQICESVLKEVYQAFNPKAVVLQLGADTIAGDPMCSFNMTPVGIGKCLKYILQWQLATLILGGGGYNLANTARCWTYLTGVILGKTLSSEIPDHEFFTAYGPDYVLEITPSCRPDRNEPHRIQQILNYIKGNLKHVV


How the values were obtained:
[1] = biological target: T1, HDAC8 (histone deacetylase 8); assay: X-ray crystal structure; type: binding
[2] = biological target: T2, HDAC8 (histone deacetylase 8); assay: X-ray crystal structure; type: binding
[3] = biological target: T3, HDAC8 (histone deacetylase 8); assay: X-ray crystal structure; type: binding
[4] = biological target: T4, D101A HDAC8 (human histone deacetylase …); assay: cell-based or functional assay
[5] = biological target: T5, D101L HDAC8 (human histone deacetylase …); assay: cell-based or functional assay
[6] = biological target: T6, D101N HDAC8 (human histone deacetylase …); assay: cell-based or functional assay
[7] = biological target: T7, D101E HDAC8 (human histone deacetylase …); assay: cell-based or functional assay

| Molecule | X-ray crystal structure (2.85 Å) [1] | X-ray crystal structure (2.55 Å) [2] | X-ray crystal structure (2.65 Å) [3] | KM of deacetylation (Fluor de Lys assay, Co2+ enzyme, 25°C, pH 8.0) [4] [μM] | kcat/KM of deacetylation (Fluor de Lys assay, Co2+ enzyme, 25°C, pH 8.0) [4] [M^−1s^−1] | KM of deacetylation (Fluor de Lys assay, Co2+ enzyme, 25°C, pH 8.0) [5] [μM] | KM of deacetylation (Fluor de Lys assay, Co2+ enzyme, 25°C, pH 8.0) [6] [μM] | kcat/KM of deacetylation (Fluor de Lys assay, Co2+ enzyme, 25°C, pH 8.0) [6] [M^−1s^−1] | KM of deacetylation (Fluor de Lys assay, Co2+ enzyme, 25°C, pH 8.0) [7] [μM] | kcat/KM of deacetylation (Fluor de Lys assay, Co2+ enzyme, 25°C, pH 8.0) [7] [M^−1s^−1] |
| --- | --- | --- | --- | --- | --- | --- | --- | --- | --- | --- |
| CN(C)c1ccc(C(=O)NCCCCCCC(=O)NO)cc1 [M344, 4-(dimethylamino)-N-[7-(hydroxyamino)-7-oxoheptyl]-benzamide] | Two conformations of the bound inhibitor are observed in the active sites of D101E, D101A and D101N HDACs | Two conformations of the bound inhibitor are observed in the active sites of D101E, D101A and D101N HDACs | The alternate conformer is stabilized by a hydrogen bond interaction with N101 in D101N HDAC8 | – | – | – | – | – | – | – |
| Ac-RHK(Ac)K(Ac)-coumarin (reading uncertain) [acetylated tetrapeptide substrate (N-acetyl-arginine-histidine-acetyllysine-acetyllysine-coumarin)] | – | – | – | > 1000 | 0.23 | > 1000 | > 1000 | 0.23 | 140 | 1100 |
